B1: phage-displayed anti-c-Met scFv PC21 (scFv, not shown: large carriers)
scFv: MAEVQLVESGPGLVKPSGTLSLKCDASAISMDSNYWWSWLRQPPGKGLEWIGEISHSGSTDYNPSLKSRATISIDKSKKQFFLRLKSVTAADTAVYYCAGLLSPLDAFDEWGQGTMVTVGGGGSGGGGSGGGGSDIQMTQSPSSLSASVGDRVTITCRASQRVATYLNWYQQKPGKAPNLLIYEASSLQSGVPSRFSGRRSGTDFTLTISSLQPEDFATYYCQQSYNTPYTFGQGTRLEIKR
notes: tested as whole phage; also called anti-c-Met phage clone 21
B2: phage-displayed anti-c-Met scFv PC1 (scFv, not shown: large carriers)
scFv: MAQVQLQQSGPGLVKPSQTLSLTCDISGDSVSSNSAAWNWIRQSPSRGLEWLGRTYYRSRWYNEYAVSVRGRISINAETSKNQFSLQLNSVTPEDTAIYYCARAGFCSGGNCYPGSEDAFDLWGQGTMVTVGGGGSGGGGSGGGGSDVVMTQSPPSLSVSVGDRVTITCRASQDITNDLNWYQQKPGKAPQLLIYHASELETGVPSRFSGSGFGTDFTLTISSLQPADIATYYCQQYDDLPLTFGGGTKVEIKR
notes: tested as whole phage; also called anti-c-Met phage clone 1

Target: T1, BSA control protein (bovine, UniProt P02769 25-607)
T1 construct: also called bovine serum albumin
T1 sequence (P02769 25-607 limits assumed): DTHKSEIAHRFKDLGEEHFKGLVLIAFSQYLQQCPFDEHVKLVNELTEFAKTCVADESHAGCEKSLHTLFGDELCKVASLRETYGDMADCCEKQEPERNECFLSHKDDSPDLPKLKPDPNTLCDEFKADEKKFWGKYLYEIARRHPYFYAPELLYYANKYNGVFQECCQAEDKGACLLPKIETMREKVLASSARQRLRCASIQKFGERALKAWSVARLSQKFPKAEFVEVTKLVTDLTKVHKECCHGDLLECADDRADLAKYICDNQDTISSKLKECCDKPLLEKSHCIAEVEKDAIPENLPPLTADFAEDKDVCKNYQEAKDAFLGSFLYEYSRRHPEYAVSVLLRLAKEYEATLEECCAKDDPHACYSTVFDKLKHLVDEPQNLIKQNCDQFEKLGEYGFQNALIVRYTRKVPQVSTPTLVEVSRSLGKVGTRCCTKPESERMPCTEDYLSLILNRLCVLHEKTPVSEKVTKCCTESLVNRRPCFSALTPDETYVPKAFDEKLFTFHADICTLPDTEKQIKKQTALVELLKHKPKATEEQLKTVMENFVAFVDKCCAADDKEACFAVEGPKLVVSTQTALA
Test: phage ELISA

Row | Binder | binding result
1 | B1 | no binding
2 | B2 | no binding
